This experiment deals with T1, Chim^C::mCH.
T1 sequence: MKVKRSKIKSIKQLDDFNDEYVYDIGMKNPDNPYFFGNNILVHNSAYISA
As to the kind of experiment: cell-based or functional assay.

B1: mTQ::Chim^N (protein, not shown: large carriers)
chain: SETGDTIHKTNWGELTVEELFNRGTRYWSEDNSKEYSANDELKVLTFDPVKDEAYYGNINYIYRHKVSKEQWEIEDEAGNTIRVTGDHSIMIERDGQLMDVKPRDMLDTDVLIVVDHN
Turning to B1, the Kapp of the PTS reaction, pH 6.0 came to 0.0107 s⁻¹; the Kapp of the PTS reaction, pH 6.5 was 0.00807 s⁻¹; the Kapp of the PTS reaction, pH 7.0 amounted to 0.00724 s⁻¹.

For the origin of these results see US20250353884A1.
